We go through one molecule from patent US20200148732A1 (UNIVERSITY OF COPENHAGEN, published 2020).

This test deals with T1, GFP-TONSL D604A (Homo sapiens, UniProt Q96HA7 1-1378).
T1 construct: also called TONSL D604A / GFP; not shown: N-terminal GFP tag
T1 sequence: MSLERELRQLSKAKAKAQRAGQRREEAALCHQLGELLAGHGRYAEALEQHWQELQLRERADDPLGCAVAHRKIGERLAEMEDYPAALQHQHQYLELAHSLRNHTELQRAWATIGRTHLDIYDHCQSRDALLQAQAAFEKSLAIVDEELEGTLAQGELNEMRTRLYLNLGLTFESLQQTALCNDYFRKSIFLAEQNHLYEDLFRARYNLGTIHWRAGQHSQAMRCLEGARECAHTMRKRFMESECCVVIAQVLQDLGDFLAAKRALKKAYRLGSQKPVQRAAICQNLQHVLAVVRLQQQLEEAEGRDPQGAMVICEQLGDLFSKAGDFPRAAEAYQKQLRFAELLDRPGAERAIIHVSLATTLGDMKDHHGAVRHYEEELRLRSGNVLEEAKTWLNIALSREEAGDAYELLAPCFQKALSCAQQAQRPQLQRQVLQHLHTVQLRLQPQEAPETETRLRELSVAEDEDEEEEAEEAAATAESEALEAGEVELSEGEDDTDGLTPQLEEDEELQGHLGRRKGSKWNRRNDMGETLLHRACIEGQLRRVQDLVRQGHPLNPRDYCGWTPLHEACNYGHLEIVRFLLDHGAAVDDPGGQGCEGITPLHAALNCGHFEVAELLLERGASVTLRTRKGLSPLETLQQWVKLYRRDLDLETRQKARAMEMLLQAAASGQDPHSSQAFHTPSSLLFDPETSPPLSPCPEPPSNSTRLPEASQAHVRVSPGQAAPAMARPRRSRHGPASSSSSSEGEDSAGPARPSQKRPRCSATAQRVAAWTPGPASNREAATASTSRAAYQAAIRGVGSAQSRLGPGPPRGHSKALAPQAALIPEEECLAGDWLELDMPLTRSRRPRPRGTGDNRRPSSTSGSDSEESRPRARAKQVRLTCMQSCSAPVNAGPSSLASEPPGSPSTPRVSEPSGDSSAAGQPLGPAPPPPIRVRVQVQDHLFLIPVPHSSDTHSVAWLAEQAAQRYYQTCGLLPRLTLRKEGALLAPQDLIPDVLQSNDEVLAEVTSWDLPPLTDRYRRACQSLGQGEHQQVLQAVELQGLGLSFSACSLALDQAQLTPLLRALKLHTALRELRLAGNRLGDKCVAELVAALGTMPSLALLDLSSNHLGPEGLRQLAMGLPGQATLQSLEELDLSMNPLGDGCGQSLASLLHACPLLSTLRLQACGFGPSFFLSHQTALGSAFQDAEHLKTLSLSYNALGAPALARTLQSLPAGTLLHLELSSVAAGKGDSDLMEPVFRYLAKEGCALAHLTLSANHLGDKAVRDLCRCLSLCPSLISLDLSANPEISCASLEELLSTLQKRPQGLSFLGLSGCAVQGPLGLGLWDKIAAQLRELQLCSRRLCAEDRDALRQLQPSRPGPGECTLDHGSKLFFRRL
The test can be described thus: GFP immunoprecipitation of GFP-TONSL from transfected HeLa S3 cells, western blot (co-IP; association may be indirect).

B1: MMS22L (endogenous, in cell extracts) (other, UniProt Q6ZRQ5 1-1243, looked up)
chain: MENCSAASTFLTDSLELELGTEWCKPPYFSCAVDNRGGGKHFSGESYLCSGALKRLILNLDPLPTNFEEDTLEIFGIQWVTETALVNSSRELFHLFRQQLYNLETLLQSSCDFGKVSTLHCKADNIRQQCVLFLHYVKVFIFRYLKVQNAESHVPVHPYEALEAQLPSVLIDELHGLLLYIGHLSELPSVNIGAFVNQNQIKLFPPSWHLLHLHLDIHWLVLEILYMLGEKLKQVVYGHQFMNLASDNLTNISLFEEHCETLLCDLISLSLNRYDKVRSSESLMSDQCPCLCIKELWVLLIHLLDHRSKWFVSESFWNWLNKLLKTLLEKSSDRRRSSMPVIQSRDPLGFSWWIITHVASFYKFDRHGVPDEMRKVESNWNFVEELLKKSISVQGVILEEQLRMYLHCCLTLCDFWEPNIAIVTILWEYYSKNLNSSFSISWLPFKGLANTMKSPLSMLEMVKTCCCDKQDQELYKSSSSYTIFLCILAKVVKKAMKSNGPHPWKQVKGRIYSKFHQKRMEELTEVGLQNFFSLFLLLAAVAEVEDVASHVLDLLNFLKPAFVTSQRALIWKGHMAFLLMYAQKNLDIGVLAEKFSCAFREKAKEFLVSKNEEMVQRQTIWTLLSIYIDGVQEVFETSYCLYPSHEKLLNDGFSMLLRACRESELRTVLSFLQAVLARIRSMHQQLCQELQRDNVDLFVQSSLSAKERHLAAVASALWRHFFSFLKSQRMSQVVPFSQLADAAADFTLLAMDMPSTAPSDFQPQPVISIIQLFGWDDIICPQVVARYLSHVLQNSTLCEALSHSGYVSFQALTVRSWIRCVLQMYIKNLSGPDDLLIDKNLEEAVEKEYMKQLVKLTRLLFNLSEVKSIFSKAQVEYLSISEDPKKALVRFFEAVGVTYGNVQTLSDKSAMVTKSLEYLGEVLKYIKPYLGKKVFSAGLQLTYGMMGILVKSWAQIFATSKAQKLLFRIIDCLLLPHAVLQQEKELPAPMLSAIQKSLPLYLQGMCIVCCQSQNPNAYLNQLLGNVIEQYIGRFLPASPYVSDLGQHPVLLALRNTATIPPISSLKKCIVQVIRKSYLEYKGSSPPPRLASILAFILQLFKETNTDIYEVELLLPGILKCLVLVSEPQVKRLATENLQYMVKACQVGSEEEPSSQLTSVFRQFIQDYGMRYYYQVYSILETVATLDQQVVIHLISTLTQSLKDSEQKWGLGRNIAQREAYSKLLSHLGQMGQDEMQRLENDNT
B1: the binding result was “binds”.
